The assay has as its target T1, active C1r (human, UniProt P00736).
T1 chain 1: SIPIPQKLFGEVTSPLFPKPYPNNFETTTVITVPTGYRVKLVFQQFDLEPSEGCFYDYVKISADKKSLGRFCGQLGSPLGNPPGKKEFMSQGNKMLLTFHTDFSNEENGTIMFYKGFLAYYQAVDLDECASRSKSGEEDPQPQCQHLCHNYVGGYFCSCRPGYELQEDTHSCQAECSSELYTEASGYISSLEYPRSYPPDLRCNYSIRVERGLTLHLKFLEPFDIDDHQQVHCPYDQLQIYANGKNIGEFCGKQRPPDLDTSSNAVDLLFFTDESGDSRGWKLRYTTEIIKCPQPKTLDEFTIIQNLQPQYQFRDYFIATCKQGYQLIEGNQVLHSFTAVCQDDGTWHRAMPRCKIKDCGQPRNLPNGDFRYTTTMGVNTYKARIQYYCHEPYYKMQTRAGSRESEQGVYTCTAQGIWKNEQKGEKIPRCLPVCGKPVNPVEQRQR
T1 chain 2: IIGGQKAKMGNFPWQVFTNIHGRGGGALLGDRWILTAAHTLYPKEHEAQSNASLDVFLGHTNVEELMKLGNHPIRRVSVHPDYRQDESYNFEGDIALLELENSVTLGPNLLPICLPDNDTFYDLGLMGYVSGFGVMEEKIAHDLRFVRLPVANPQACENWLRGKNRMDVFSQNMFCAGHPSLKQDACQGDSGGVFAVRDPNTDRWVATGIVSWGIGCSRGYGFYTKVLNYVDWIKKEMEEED
The assay is described as follows: SPR.

B1: FbpB-Δ5C (domain or fragment)
chain: GSTGSETRLDNQYKFNLNKTTNSVEQALKIAQQIKDDLDTIEFHRIKLSNHYGIRAEEHEKQTAKEELSKFSKDKLEADLKKLLCEIEKSLNAATILTTHNEYHYGGNLQSDLSAKTTLDTLKTEVSSLISKIQNSNNKDHQAYPTSYYNDYQSYQALRNPYSKLTLVK
modifications: activated two-chain form, cleaved between 463 and 464 (cleavage limits from UniProt chain features), heavy and light chains disulfide-linked; plasma-purified glycoprotein; native C1r forms a Ca-dependent-complex homodimer, but the paper does not state stoichiometry
As for B1, the Kd (as a rule, the constant that tells how readily two partners part at equilibrium) was 2.1 nM.

For the origin of these results see article PMC9186069 (2022).
